Patent publication US9487562B2, “Stabilized polypeptides as regulators of RAB GTPase function” (President and Fellows of Harvard College, priority 2011, dated 2016)
Bridge positions count the residues as written; N and C are the ends. Square brackets hold non-standard residues; d marks the D form. Ends that are not written are not given here. S5 = C=CCCC[C@](C)(N)C(=O)O

Experiments:
[1] = target: T1, RAB11 (Homo sapiens, UniProt P62491); experiment: Fluorescence polarization binding of FITC-FIP/FITC-RFP peptides to RAB11; conditions: FITC peptide 15 nM, fluorescence polarization
T1 construct: RAB11 (residues 1-175) was expressed with an N-terminal GST-tag with an internal thrombin cleavage site; GST (thrombin cleavage site between tag and RAB11) (N); made in house; host or cells: Escherichia coli BL21(DE3) pLysS
T1 sequence (P62491 1-175): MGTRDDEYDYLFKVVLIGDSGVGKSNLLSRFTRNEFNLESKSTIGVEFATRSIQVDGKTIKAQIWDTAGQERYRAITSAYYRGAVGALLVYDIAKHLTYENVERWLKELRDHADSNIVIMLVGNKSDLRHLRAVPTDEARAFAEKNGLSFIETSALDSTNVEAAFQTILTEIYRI
Protocol: Fluorescence polarization (FP) was used to measure FIP peptide binding to RAB11 and RAB25 proteins. […] This indicated specificity in the binding measurement, as this subtle change would be expected to perturb binding.
(§1) RAB11/25 protein binding assays were performed by incubating FITC-FIP or FITC-RFP (stapled FIP derivatives) peptides (15 nM) with three-fold dilutions of recombinantly-expressed, purified RAB11, RAB25 or a various epitope-tagged version of either in protein-binding buffer (25 mM Tris-HCl, pH 8.0, 150 mM NaCl, 1 mM EDTA, 1 mM DTT, 10 mM MgCl2, 10 mM GTP). Dilutions and incubations were made in 384-well, black flat-bottom plates (Corning) to a total volume of 40 μL and equilibrated for 60 minutes. Polarization was measured on a Spectramax-M5 multi-label plate reader with λex=485 nm and λem=525 nm. Polarization was calculated according to the standard equation: P=(V−H)/(V+H), where P=polarization, V=vertical emission intensity and H=horizontal emission intensity. Kd values were determined by fitting data to a variable-slope sigmoidal binding curve using Prizm 4 graphing software.
(§2) RAB11 and RAB25 proteins were expressed and purified in Escherichia coli strain BL21(DE3) pLysS (Stratagene) as epitope-tagged fusion proteins in various vectors (Novagen). RAB25 (residues E7-Q180) was expressed with an N-terminal GST- and hexahistidine tag with internal thrombin and TEV cleavage sites (GST-H6-RAB25) (SEQ ID NO: 86) in a pET41-1 vector (Novagen) or with an N-terminal hexahistidine tag alone with an internal thrombin cleavage site (H6-RAB25) (SEQ ID NO: 86) in a pET28 vector (Novagen). FIP3 protein (residues 649-756) was expressed with an N-terminal GST-tag with an internal TEV cleavage site (GST-FIP3) in a pGEX6p-1 vector (Novagen). RAB11 (residues 1-175) was expressed with an N-terminal GST-tag with an internal thrombin cleavage site in a pGEX5x-1 vector (Novagen). Transformed bacteria was grown at 37° C. until an OD600=0.8 was reached, at which point the culture was induced with 0.5 mM isopropyl β-D-1-thiogalactopyranoside (IPTG). Induced cells were grown at 30° C. for 6 hours, pelleted and lysed in binding buffer (25 mM Tris-HC;, pH 8.0, 150 mM NaCl, 1 mM EDTA, 1 mM DTT, 10 mM MgCl2, 10 mM GTP) supplemented with a complete protease inhibitor tablet (Roche) by sonication on ice. The lysate was centrifuged at 14,000 rpm to clear insoluble matter prior to loading onto Ni-NTA resin (Qiagen) for hexahistdine-tagged constructs or on GST-bind agarose resin (Biorad) for GST-tagged constructs. The protein-bound bead slurry was washed 4× with ˜20 mL of buffer and retained protein was eluted with either 250 mM imidazole or 20 mM glutathione in buffer for H6-(SEQ ID NO: 86) or GST-proteins, respectively. The eluent was concentrated using a 30 kD exclusion filter and purified by size-exclusion chromatography on a Superdex-75 Column (Amersham Pharmacia Biotech). Fractions containing purified protein were pooled, concentrated and dialyzed into binding buffer or other similar buffer for specific biochemical assays.

[2] = target: T2, RAB25 (Homo sapiens, UniProt P57735); experiment: Fluorescence polarization binding of FITC-FIP/FITC-RFP peptides to RAB25; conditions: FITC peptide 15 nM
T2 construct: RAB25 (residues E7-Q180) was expressed with an N-terminal GST- and hexahistidine tag; made in house; host or cells: Escherichia coli BL21(DE3) pLysS
T2 sequence (P57735 7-180): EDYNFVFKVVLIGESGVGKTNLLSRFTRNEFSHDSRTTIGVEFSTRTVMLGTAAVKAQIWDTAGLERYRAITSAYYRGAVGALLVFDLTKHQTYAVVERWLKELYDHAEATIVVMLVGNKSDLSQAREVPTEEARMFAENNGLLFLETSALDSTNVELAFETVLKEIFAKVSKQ
Protocol: as §1, §2

[3] = Circular dichroism spectra / percent helicity; format: physicochemical; conditions: calculated from the absorbance at 222 nm
Protocol: We next investigated the structural stability of the RFPs by obtaining circular dichroism (CD) spectra for each peptide. All measurements were made at 20° C. in water with peptides at 50 μM. […] By comparison, stapled FIP peptides (RFPs) show helical CD spectra indicated by minima at approximately 208 and 222 nm (FIG. 11B).
A circular dichroism spectrometer (Jasco J-710, Japan) was used to determine the α-helical content of all peptides. Peptides were dissolved in water to a final concentration of 50 μM in a quartz cuvette with a path length of 1 cm. Absorbance values were taken at 1 nm intervals between 190 and 260 nm for buffer alone and for peptide solutions. The background (buffer) spectrum was subtracted from experimental spectra, which were subsequently subjected to baseline-normalization and curve-smoothing within the spectrometer software. Percent-helicity was calculated from the absorbance at 222 nm using helical models as previously reported in Chen Y H et al., Biochemistry, 13, 3350-9 (1974).

[4] = Peptide thermal stability by CD at 222 nm; format: physicochemical; conditions: CD at 222 nm over 10-90° C.
Protocol: Peptide thermal stability was measured by scanning the peptide CD at 222 nm over a temperature range (10-90° C.). A sigmoidal unfolding curve was apparent for helices of unmodified FIP peptides (FIP4) with a Tm of ˜34° C. (FIG. 12A).
Peptide thermal stability experiments were performed in a similar manner to circular dichroism experiments in Example 5. Peptide solutions were cooled to 10° C. in a temperature controlled CD-chamber and circular dichroism absorbance at 222 nm was measured at 1 degree intervals while the solution was heated to 90° C. 222 nm CD values were plotted as a function of temperature and fitted to a sigmoidal denaturation curve, with the half-maximal temperature representing the Tm.

[5] = system: U2OS osteosarcoma cells; experiment: Quantitative epifluorescence microscopy of cell penetration; format: cell-based; conditions: 5 μM FITC-RFPs for 12 hours, DMEM 10% FBS
Protocol: U2OS osteosarcoma cells were treated with 5 μM FITC-RFPs for 12 hours in Dulbecco's Modified Eagle Medium (DMEM) (Gibco®) containing 10% fetal bovine serum (FBS). Cells were washed, then stained with Hoescht nuclear dye. Automated fluorescence microscopy was performed at 20× on an IX5000 epifluorescence microscope. Nuclear staining is shown in the top panel and FITC is show in the bottom panel (FIGS. 16 and 17B). Quantification was performed using MetaXpress software (FIG. 18A).

[6] = target: T3, RAB25 (UniProt P57735 7-180); experiment: fluorescence polarization (FIG. 19B, RAB25); reference peptide not named
T3 construct: range 7-180; Target of the fluorescence polarization assays; also called H6-RAB25
T3 sequence (looked up): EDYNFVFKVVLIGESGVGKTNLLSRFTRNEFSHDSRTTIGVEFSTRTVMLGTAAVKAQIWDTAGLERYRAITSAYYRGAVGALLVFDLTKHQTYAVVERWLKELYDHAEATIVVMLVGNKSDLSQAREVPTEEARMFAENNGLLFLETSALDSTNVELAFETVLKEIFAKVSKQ
Protocol: as §1, with “MgCl_2,” for “MgCl2,”, “µL” for “μL”, “$\lambdaex$=485” for “λex=485”, “$\lambdaem$=525” for “λem=525”, “K_d” for “Kd”

[7] = target: T4, GST-H6-RAB25 (Homo sapiens, UniProt P57735); experiment: ALPHASCREEN competition assay (biotin-RFP14 / GST-H6-RAB25 complex); format: binding; conditions: competitor added to pre-formed biotin-RFP14/GST-H6-RAB25 complex
T4 construct: RAB25 (residues E7-Q180) was expressed with an N-terminal GST- and hexahistidine tag; made in house; host or cells: Escherichia coli BL21(DE3) pLysS
T4 sequence (P57735 7-180): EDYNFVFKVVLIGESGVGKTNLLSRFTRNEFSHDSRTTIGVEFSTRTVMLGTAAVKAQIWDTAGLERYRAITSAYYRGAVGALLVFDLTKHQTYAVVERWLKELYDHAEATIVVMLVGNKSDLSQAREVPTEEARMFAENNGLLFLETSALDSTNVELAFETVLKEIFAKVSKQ
Description: A nano-bead based […] assay (ALPHASCREEN®) was used to qualitatively assess protein binding (peptide-RAB or protein-RAB association) and quantitatively assess inhibitor ranking (competition assays). […] FIG. 13B schematizes the ALPHASCREEN® (binding) strategy. If an RFP (or FIP protein/peptide) conjugated to biotin (bound to a donor bead, in this case streptavidin) interacts with RAB conjugated to GST (bound to an acceptor bead, in this case, anti-GST), there is a proximity-dependent transfer of chemical energy, resulting in light production.
For competition assays, complexes consisting of biotin-FIP and GST-RAB proteins or biotin-RFP and GST-RAB peptides with free RFPs, unmodified peptides, and FIP proteins were incubated.
In FIGS. 13 and 14, the binding complex is pre-formed with Biotin-RFP14 and GST-H6-RAB25 (SEQ ID NO: 86). Soluble competitors were then added after an incubation time (30 min) across a dose range. These competitors are FIP3 (expressed protein), and Trp-labeled derivatives of RFP14, RFP16 and RFP17. After another incubation of 30 min the streptavidin donor beads and Ni-NTA acceptor beads are added and the luminescent signal is measured approximately 30 min later (total of ˜1.5 hr incubation time).

RFP14: stapled FIP peptide, SEQ ID NO: 75 (RQVRELENYIDRLLV[S5]VNE[S5]TPNILRIPR; staple 16-20; not fully specified (C-terminus))
binding affinity to RAB11 [1]: highest binding affinity | binding affinity to RAB25 [2]: highest binding affinity | theoretical percent helicity [3]: highest helical content | Tm [4]: 64 °C | cell penetration [5]: lowest cell penetration

B1: RFP31 (peptide)
peptide: RINFRLQN[S5]IDR[S5]AARIAETNPSILEVK
modifications: staple 9-13; also: N-terminal cap differs by assay: FITC or diethyleneglycol-biotin
notes: Negative control in which the I/V/M contact residues are changed to alanine; also called triple-alanine mutant negative control
fold decrease in binding affinity [6]: ~100 fold

B2: FIP3 protein: expressed FIP3 protein (652-756), soluble competitor in … (protein, UniProt O75154 652-756, looked up, fragment)
chain: QEYHSRARESELEQEVRRLKQDNRNLKEQNEELNGQIITLSIQGAKSLFSTAFSESLAAEISSVSRDELMEAIQKQEEINFRLQDYIDRIIVAIMETNPSILEVK
modifications: GST tag
competition for RAB25 binding (IC50) [7]: significantly higher IC50
